This note sets out measurements from article PMC10113545, “OsWRKY76 positively regulates drought stress via OsbHLH148-mediated jasmonate signaling in rice”.

Data set [1] addresses T1, GST-OsWRKY76 (Oryza sativa, UniProt Q6EPZ2 1-327).
T1 sequence: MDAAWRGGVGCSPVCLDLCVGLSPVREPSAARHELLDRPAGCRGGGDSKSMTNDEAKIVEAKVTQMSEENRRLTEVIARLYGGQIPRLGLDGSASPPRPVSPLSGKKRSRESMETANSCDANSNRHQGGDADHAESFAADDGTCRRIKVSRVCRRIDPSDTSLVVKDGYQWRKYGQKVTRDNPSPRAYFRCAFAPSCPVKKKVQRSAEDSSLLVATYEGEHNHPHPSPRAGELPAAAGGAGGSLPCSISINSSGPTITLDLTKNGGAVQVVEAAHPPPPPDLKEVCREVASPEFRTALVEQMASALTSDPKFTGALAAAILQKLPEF
The data set can be described thus: EMSA; EMSA as in Gao et al. 2019; buffer, salt, pH and temperature not stated. The conditions noted are these: protein: recombinant; tags: N-terminal GST (pGEX-4T-3); label: 6-FAM 5' end (strand(s) not specified); blunt.

Data set [2] addresses T1, GST-OsWRKY76. In words: competition; 10x and 50x molar excess of unlabeled probe reduced the N1 shift; EMSA as in Gao et al. 2019; buffer, salt, pH and temperature not stated. The conditions noted are these: protein: recombinant; tags: N-terminal GST (pGEX-4T-3); blunt.

B1: OsDREB1E probe (6-FAM) (dsDNA)
DNA 1: GCACGGGTAGTTTTGACCTATAGGAGTGTA
DNA 2: TACACTCCTATAGGTCAAAACTACCCGTGC
Take B1: the binding result with GST-OsWRKY76 [1] is “binds”.

B2: OsDREB1E unlabeled competitor probe (dsDNA)
DNA 1: B1 DNA 1
DNA 2: B1 DNA 2
Regarding B2, in the data set with GST-OsWRKY76 [2], the binding result is listed as “binds”.
